Variants at the floor of the assay were thinned out.
B1: TPR 5TU (parent)
chain: GGAUCUUCUCGAUCUAACAAAAAAGACAAAUCUGCCACAAAGCUUGAGAGCAUCUUCGGAUGCAGAGGCGGCAGCCUUCGGUGGCGCGAUAGCGCCAACGUUCUCAACUAUGACACGCAAAACGCGUGCUCCGUUGAAUGGAGUUUAUCAUG

Variants of: B1
Experiment: polymerase ribozyme fitness, log enrichment relative to wild type (log ratio); higher = more active; in vitro selection for triplet polymerase activity
In short: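 Libraries of mutants in each subunit of a heterodimeric triplet polymerase ribozyme were generated by PCR and transcribed. In triplicate, each went through one in vitro selection round: annealing with biotinylated primer, partner subunit and triplets; frozen incubation at −7 °C; gel excision of extended constructs; streptavidin-bead capture; RT-PCR. Fitness, taken from Illumina sequencing of input and output libraries, is the logarithm of a genotype's enrichment over wild-type enrichment, averaged across replicates with inverse-variance weights. The logarithm is base 2, and genotypes needed ≥10 input reads and ≥1 read per output to be kept.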

Variant | polymerase ribozyme fitness (log ratio)
GGAUCUUCUCGAUCUAACAAAAAAGACAAAUCUGCCACAAAGCUUGAGAGCAUCUUCGGAUGCAGAGGCGGCAGCCUUCGGUGGCGCGAUAGCGCCAACGUUCUCAACUAUGACACGCAAAACGCGUACUCCGUUAAAUGGAGUUUAUCAUG [G128A G136A] | -4.18
GGAUCUUCUCGAUCUAACAAAAAAGACAAAUCUGCCACAAAGCUUGAGAGCAUCUUCGGAUGCAGAGGCGGCAGCCUUCGGUGGCGCGAUAGCGCCAACGUUCUCAACUAUGACACGCAAAACGCGUACUCCGUUGAAUGGAGUUUAUCAUG [G128A] | -2.74
GGAUCUUCUCGAUCUAACAAAAAAGACAAAUCUGCCACAAAGCUUGAGAGCAUCUUCGGAUGCAGAGGCGGCAGCCUUCGGUGGCGCGAUAGCGCCAACGUUCUCAACUAUGACACGCAAAACGCGUUCUCCGUUGAAUGGAGUUUAUCAUG [G128U] | -2.53
GGAUCUUCUCGAUCUAACAAAAAAGACAAAUCUGCCACAAAGCUUGAGAGCAUCUUCGGAUGCAGAGGCGGCAGCCUUCGGUGGCGCGAUAGCGCCAACGUUCUCAACUAUGACACGCAAAACGCGUCCUCCGUUGAAUGGAGUUUAUCAUG [G128C] | -2.21
GGAUCUUCUCGAUCUAACAAAAAAGACAAAUCUGCCACAAAGCUUGAGAGCAUCUUCGGAUGCAGAGGCGGCAGCCUUCGGUGGCGCGAUAGCGCCAACGUUCUCAACUAUGACACGCAAAACGCGUGGUCCGUUGAAUGGAAUUUAUCAUG [C129G G143A] | -2.23
GGAUCUUCUCGAUCUAACAAAAAAGACAAAUCUGCCACAAAGCUUGAGAGCAUCUUCGGAUGCAGAGGCGGCAGCCUUCGGUGGCGCGAUAGCGCCAACGUUCUCAACUAUGACACGCAAAACGAGUGCUCCGUUGAAUGGAGUUUACCAUG [C125A U148C] | -3.48
GGAUCUUCUCGAUCUAACAAAAAAGACAAAUCUGCCACAAAGCUUGAGAGCAUCUUCGGAUGCAGAGGCGGCAGCCUUCGGUGGCGCGAUAGCGCCAACGUUCUCAACUAUGACACGCAAAACGAGUGCUCCGUUGAAUGGAGUUUAACAUG [C125A U148A] | -3.93
GGAUCUUCUCGAUCUAACAAAAAAGACAAAUCUGCCACAAAGCUUGAGAGCAUCUUCGGAUGCAGAGGCGGCAGCCUUCGGUGGCGCGAUAGCGCCAACGUUCUCAACUAUGACACGCAAAACGCGCGCUCCGUUGAACGGAGUUUAUCAGG [U127C U139C U151G] | ≤ -4.2
GGAUCUUCUCGAUCUAACAAAAAAGACAAAUCUGCCACAAAGCUUGAGAGCAUCUUCGGAUGCAGAGGCGGCAGCCUUCGGUGGCGCGAUAGCGCCAACGUUCUCAACUAUGACACGCAAAACUCGUGCUCCGGUGAAUGGAGUUUAUCAUG [G124U U134G] | -2.98
GGAUCUUCUCGAUCUAACAAAAAAGACAAAUCUGCCACAAAGCUUGAGAGCAUCUUCGGAUGCAGAGGCGGCAGCCUUCGGUGGCGCGAUAGCGCCAACGUUCUCAACUAUGACACGCAAAACGCGUGCACCGUUGAAUGGAGUUUAUCAUG [U130A] | -1.66
GGAUCUUCUCGAUCUAACAAAAAAGACAAAUCUGCCACAAAGCUUGAGAGCAUCUUCGGAUGCAGAGGCGGCAGCCUUCGGUGGCGCGAUAGCGCCAACGUUCUCAACUAUGACACGCAAAACGCGUGCCCCGUUGAAUGGAGUUUAUCAUG [U130C] | 1.27
GGAUCUUCUCGAUCUAACAAAAAAGACAAAUCUGCCACAAAGCUUGAGAGCAUCUUCGGAUGCAGAGGCGGCAGCCUUCGGUGGCGCGAUAGCGCCAACGUUCUCAACUAUGACACGCAAAACGUGUGCUCCGUUGAAUGGAGUUGAUCAUG [C125U U146G] | -1.15
GGAUCUUCUCGAUCUAACAAAAAAGACAAAUCUGCCACAAAGCUUGAGAGCAUCUUCGGAUGCAGAGGCGGCAGCCUUCGGUGGCGCGAUAGCGCCAACGUUCUCAACUAUGACACGCAAAACGGGUGCUCCGUUGAAUGGCGUUUAUCAUG [C125G A142C] | -4.01
GGAUCUUCUCGAUCUAACAAAAAAGACAAAUCUGCCACAAAGCUUGAGAGCAUCUUCGGAUGCAGAGGCGGCAGCCUUCGGUGGCGCGAUAGCGCCAACGUUCUCAACUAUGACACGCAAAACGCAUGCUCCGUUGAAUGGCGUUUAUCAUG [G126A A142C] | -3.28
GGAUCUUCUCGAUCUAACAAAAAAGACAAAUCUGCCACAAAGCUUGAGAGCAUCUUCGGAUGCAGAGGCGGCAGCCUUCGGUGGCGCGAUAGCGCCAACGUUCUCAACUAUGACACGCAAAACGGGAGCUCCGUUGAAUGGAGUUUAUCAUG [C125G U127A] | -3.68
GGAUCUUCUCGAUCUAACAAAAAAGACAAAUCUGCCACAAAGCUUGAGAGCAUCUUCGGAUGCAGAGGCGGCAGCCUUCGGUGGCGCGAUAGCGCCAACGUUCUCAACUAUGACACGCAAAACGCAUGCUCCGUUGACUGGAGUUUAUCAUG [G126A A138C] | -3.73
GGAUCUUCUCGAUCUAACAAAAAAGACAAAUCUGCCACAAAGCUUGAGAGCAUCUUCGGAUGCAGAGGCGGCAGCCUUCGGUGGCGCGAUAGCGCCAACGUUCUCAACUAUGACACGCAAAACGCGAUCUCCGUUGAAUGGAGUUUAUCAUG [U127A G128U] | -3.18
GGAUCUUCUCGAUCUAACAAAAAAGACAAAUCUGCCACAAAGCUUGAGAGCAUCUUCGGAUGCAGAGGCGGCAGCCUUCGGUGGCGCGAUAGCGCCAACGUUCUCAACUAUGACACGCAAAACGCUUGCUCCGUUGAAUGGAGUUUAUUAUG [G126U C149U] | -1.96
GGAUCUUCUCGAUCUAACAAAAAAGACAAAUCUGCCACAAAGCUUGAGAGCAUCUUCGGAUGCAGAGGCGGCAGCCUUCGGUGGCGCGAUAGCGCCAACGUUCUCAACUAUGACACGCAAAACGCUUGCUCCGUCGAAUGGAGUUUAUCAUG [G126U U135C] | -1.61

Reference: the RNAGym collection of RNA variant scans (doi:10.1073/pnas.2313332121)
